According to patent US11607466B2, “Tumor and immune cell imaging based on PD-L1 expression” (The Johns Hopkins University, priority 2016, dated 2023):

Columns and labels:
[1] = target: T1, PD-L1 in A549-iPDL1 tumors (Homo sapiens, UniProt Q9NZQ7); test: [64Cu]WL12 PET and biodistribution in A549-iPDL1 and A549 xenografts; format: in vivo; settings: AtzMab 20 mg/kg
T1 construct: expressed in transfected cells; host or cells: A549 NSCLC cells, lentiviral pINDUCER20, G418-selected, doxycycline-induced; as xenografts for the in vivo unit
T1 sequence (Q9NZQ7 19-290): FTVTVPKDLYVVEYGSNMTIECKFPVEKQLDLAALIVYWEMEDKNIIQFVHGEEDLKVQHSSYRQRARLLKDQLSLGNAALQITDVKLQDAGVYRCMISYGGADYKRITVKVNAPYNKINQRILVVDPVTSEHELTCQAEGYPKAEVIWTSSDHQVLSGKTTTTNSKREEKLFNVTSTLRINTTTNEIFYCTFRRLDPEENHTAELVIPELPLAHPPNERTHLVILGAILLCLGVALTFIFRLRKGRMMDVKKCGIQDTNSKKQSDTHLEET
Description: To do so, an A549 NSCLC cell line with doxycycline-inducible PD-L1 expression (A549-iPD-L1) was generated. A549 is a Kras G12S lung adenocarcinoma cell line that expresses low PD-L1 at baseline. It has been transduced with PD-L1 in the all-in-one lentivirus pINDUCER20 vector (Meerbrey, et al., 2011), selected with G418, confirmed for PD-L1 induction by flow cytometry (FIG. 37A) and used for in vitro and in vivo studies. Cy5-PD-L1-mAbs binding to doxycycline-treated A549-iPDL1 cells was blocked by WL12 validating the specificity of WL12 (FIG. 37B). […] Accordingly, it is expected that PET will play a key role in quantifying dynamic changes in PD-L1 expression within the standard clinical work flow, providing a novel way to inform therapy decisions.

[2] = target: mouse PD-L1 (Mus musculus, UniProt Q9EP73); settings: read-out: dissociation constant (Kd), mouse PD-L1; cited from earlier work
Chain of mouse PD-L1 (Q9EP73 19-290): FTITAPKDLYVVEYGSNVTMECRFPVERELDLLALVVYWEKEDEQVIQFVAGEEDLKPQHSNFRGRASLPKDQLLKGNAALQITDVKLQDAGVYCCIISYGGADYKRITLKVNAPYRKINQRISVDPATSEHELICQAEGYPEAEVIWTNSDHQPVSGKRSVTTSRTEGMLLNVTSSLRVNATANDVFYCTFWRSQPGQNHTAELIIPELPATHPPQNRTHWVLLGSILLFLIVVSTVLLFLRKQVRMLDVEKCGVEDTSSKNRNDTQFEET

[3] = target: T2, PD-L1 in A549-iPDL1 cells (Homo sapiens, UniProt Q9NZQ7); test: Binding studies in doxycycline-inducible A549-iPDL1 cells; format: cell-based; settings: 60 nM mAb
T2 construct: expressed in transfected cells; host or cells: A549 NSCLC cells, lentiviral pINDUCER20, G418-selected, doxycycline-induced
T2 sequence (Q9NZQ7 19-290): as the sequence (Q9NZQ7 19-290) above
Description: To do so, an A549 NSCLC cell line with doxycycline-inducible PD-L1 expression (A549-iPD-L1) was generated. A549 is a Kras G12S lung adenocarcinoma cell line that expresses low PD-L1 at baseline.

- decrease of [64Cu]WL12 uptake in A549-iPDL1 tumors [1]: > 75%
- decrease of [64Cu]WL12 binding to doxycycline-treated A549-iPDL1 cells [3]: 65%
Substance: AtzMab: therapeutic PD-L1 antibody Atezolizumab
- Kd [2]: 0.13 nM
